The text below walks through data of paper PMC11947619, “Molecular mechanism of Mad2 conformational conversion promoted by the Mad2‐interaction motif of Cdc20” (Protein Science : A Publication of the Protein Society, 2025).

For series [1] the following is noted: cited from earlier work. The method, then: In contrast, conversion took ~24 h in the absence of Cdc20^MIM‐111‐138 peptide (Fischer et al., [2022]) (Figures 2c and ...
The conditions of series [2]: experimentally determined; ref Zhao et al., [2016]; cited from earlier work.
Series [3] addresses T1, O‐Mad2^R133A (Homo sapiens, UniProt Q13257, R133A).
T1 construct: unable to collect equivalent data for full‐length O‐Mad2^R133A; His6-DoubleStrep-TEV (N); made in house
The series is described as follows: Time-resolved NMR: O-Mad2 to C-Mad2 conversion of O-Mad2^R133A with MIM peptides. In kind it is biochemical. Conditions: 100 μM O-Mad2^R133A, 25°C. The method, then:
FIGURE 2 NMR fingerprinting of Mad2. (a) Structural orientations of Trp75 (on the αB helix) and Trp167 (on the “safety‐belt”) in Mad2 produce distinct indole NH resonances. […] NMR spectra for O‐Mad2^R133A and “empty” C‐Mad2^L13A/R133A and C‐Mad2^R133A:Cdc20^MIM‐111‐138 are from Fischer et al. ([2022]) (c) Mad2 conversion rates vary with different MIM peptides. Conversion was traced over 24 h at 25°C using the Trp75 and Trp167 side‐chain resonances as reporters. MIM peptides were added at two‐fold molar excess to Mad2 (100 μM). Each spectrum required 12 min of acquisition time, therefore the 15 min time‐points represent the earliest spectra in the time‐resolved series. The schematics show the conformation of Mad2 as indicated by the tryptophan side‐chain resonances. A black tick marks when conversion is considered complete. NMR data for O‐Mad2^R133A with and without Cdc20^MIM‐111‐138 shown are from Fischer et al. ([2022]). In the case of full‐length Cdc20, the MIM sequence is sequestered by an auto‐inhibitory intramolecular interaction within Cdc20 itself, which prevents it from being readily accessible for binding to C‐Mad2 (Piano et al., [2021]). Conversely, isolated MIM peptides lack this auto‐inhibitory mechanism, allowing them to bind directly to C‐Mad2 without obstruction.
To understand whether Mad2 conversion times are modulated by different C‐Mad2 ligands, we used time‐resolved NMR to determine the conversion time of 100 μM O‐Mad2^R133A at 25°C. The indole NH resonances of Trp75 and Trp167 were used as reporters (Figure 2b). […] In contrast, conversion took ~24 h in the absence of Cdc20^MIM‐111‐138 peptide (Fischer et al., [2022]) (Figures 2c and S4b). […] Other MIM peptides also accelerated the O‐Mad2 to C‐Mad2 conversion. […] In “empty” C‐Mad2, the β7/β8 hairpin is displaced to expose the β6 strand for pairing with the MIM peptide (Luo et al., [2004]) (Figure S3a).
Mad2 constructs were expressed in BL21 Star (DE3) cells (Thermo Fisher Scientific), co‐transformed with a pRARE plasmid (Merck). Uniformly labeled proteins were expressed in M9 minimal media (6 g/L Na2HPO4, 3 g/L KH2PO4, 0.5 g/L NaCl) supplemented with 1.7 g/L yeast nitrogen base without NH4Cl and amino acids (Sigma Y1251). 1 g/L ^15NH4Cl and 4 g/L glucose were supplemented for ^15N labeling. For ^13C/^15N double‐labeled samples, unlabeled glucose was replaced with 3 g/L ^13C‐glucose. Protein expression was induced with 0.4 mM IPTG at 16°C overnight. All samples were purified as previously described (Luo & Yu, [2005]; Mapelli et al., [2007]) and all O‐Mad2 variants were kept at 4°C during purification to prevent conversion to C‐Mad2. Prior to all NMR experiments, proteins were dialyzed into 20 mM HEPES, pH 7.0, 100 mM NaCl, 1 mM TCEP. ^13C/^15N‐labeled samples were used for backbone assignment, and all other experimental data were acquired on ^15N‐labeled samples. Proteins were kept on ice before NMR experiments to ensure all O‐Mad2 remained in the open state. For “bound” C‐Mad2, MIM peptides were added in 1:2 molar excess to ensure complete conversion.
All peptides were synthesized by Cambridge Research Biochemicals, UK. Peptides were dialyzed into 20 mM HEPES, pH 7.0, 100 mM NaCl, and 1 mM TCEP for NMR experiments. The sequences for the peptides used in this study are: Cdc20^MIM‐111‐138 ([…]), Cdc20^MIM‐123‐137 (FDVEEAKILRLSGKP), Cdc20^MIM‐123‐152 ([…]), Cdc20^MIM‐138‐152 (QNAPEGYQNRLKVLY), Mad1^MIM‐529‐550 ([…]), and MBP1^MIM (SWYSYPPPQRAV). […]

In series [4] the test system is O‐Mad2. Conditions: NMR; ref Luo et al., [2004]; cited from earlier work. As for the experimental part:
To understand whether Mad2 conversion times are modulated by different C‐Mad2 ligands, we used time‐resolved NMR to determine the conversion time of 100 μM O‐Mad2^R133A at 25°C. The indole NH resonances of Trp75 and Trp167 were used as reporters (Figure 2b). […] In contrast, conversion took ~24 h in the absence of Cdc20^MIM‐111‐138 peptide (Fischer et al., [2022]) (Figures 2c and ...

The test system of series [5] is C‐Mad2. Particulars: phage-display selected MIM peptide; ref Luo et al., [2002]; cited from earlier work.
Series [6] deals with Mad2^∆β7/β8. Conditions: ref Yang et al., [2008]; cited from earlier work. The text has this:
We reasoned that MIM binding to Mad2 is blocked until the β7/β8 hairpin is displaced (Figure 3c,d). To test this hypothesis, we generated a Mad2 variant with a deleted β7/β8 hairpin (Mad2^∆β7/β8: residues 1–165) (Figure 3e). Mad2^∆β7/β8 adopted a stable globular fold, and due to the absence of the C‐terminal residues, it was unable to adopt a closed conformation (Figure 3f). […] This is in agreement with a previous study that showe ...

Series [7] addresses T2, Mad2^R133A (human, UniProt Q13257 1-205, R133A).
T2 construct: Mad2, human, full-length, R133A; Tag is followed by a TEV site; 15N-labelled for NMR; Starts in the open state; also called O-Mad2^R133A; C-Mad2^R133A; source: E. coli BL21 Star (DE3) with pRARE, purified
The series can be described thus: time-resolved NMR (series of 2D 1H,15N HSQC spectra); 100 μM 15N Mad2 variant, MIM peptide at two-fold molar excess, 25°C, 20 mM HEPES pH 7.0, 100 mM NaCl, 1 mM TCEP, 5% D2O; Trp75 and Trp167 indole NH resonances as reporters of the ligand-bound closed state; 12 min per spectrum, up to 24 h. Particulars: both partners purified.

Series [8] addresses T3, Mad2^LL/R133A (human, UniProt Q13257 1-205, residues 109–117 (TAKDDSAPR) with GSG | R133A).
T3 construct: Mad2, human; Mad2^LL construct (residues 109-117 replaced by GSG) with Ala for Arg133; numbers count on wild-type Mad2; Tag is followed by a TEV site; also called O-Mad2^LL/R133A; source: E. coli BL21 Star (DE3) with pRARE, purified
The series is described as follows: time-resolved NMR (series of 1H,15N SOFAST-HMQC spectra, residue conversion rates); 200 μM Mad2 variant, 950 MHz, 25°C, 500 spectra of 5 min over 42 h; disappearance of O-Mad2 and appearance of C-Mad2:Cdc20^MIM backbone resonances. Particulars: both partners purified.

For series [9], the target named is T4, human wild-type Mad2 (human, UniProt Q13257 1-205).
T4 construct: Mad2, human, wild type; limits follow from Mad2^Δβ7/β8 (residues 1-165), made from this construct by deleting residues 166-205; Tag is followed by a TEV site; 15N-labelled for NMR; Expressed and kept cold as the open state (O-Mad2); Construct described in Fischer et al. 2022; also called Mad2^WT; O-Mad2^WT; source: E. coli BL21 Star (DE3) with pRARE, purified
T4 sequence (Q13257 whole entry, the tested form may be a part): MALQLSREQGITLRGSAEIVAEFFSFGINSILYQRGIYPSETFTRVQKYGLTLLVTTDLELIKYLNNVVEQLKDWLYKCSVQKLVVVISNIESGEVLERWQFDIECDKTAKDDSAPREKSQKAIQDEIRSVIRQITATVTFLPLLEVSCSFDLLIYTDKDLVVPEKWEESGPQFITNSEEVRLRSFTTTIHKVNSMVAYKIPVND
The series is described as follows: SEC; excess of Mad1^MIM peptide added to O-Mad2^WT, complex purified by size-exclusion chromatography. Particulars: both partners purified.

In series [10] the target is T5, Mad2^L13A/R133A (human, UniProt Q13257 1-205, L13A | R133A).
T5 construct: Mad2, human, full-length, L13A and R133A; made from the Mad2^R133A mutant; Adopts the closed state without ligand; Tag is followed by a TEV site; also called “empty” C-Mad2; C-Mad2^L13A/R133A; source: E. coli BL21 Star (DE3) with pRARE, purified
T5 sequence (Q13257 whole entry L13A/R133A): as the sequence (Q13257 whole entry, the tested form may be a part) above, with L13A, R133A counted along it
The series is described as follows: time-resolved NMR (series of 2D 1H,15N HSQC spectra); 100 μM 15N Mad2 variant, MIM peptide at two-fold molar excess, 25°C, 20 mM HEPES pH 7.0, 100 mM NaCl, 1 mM TCEP, 5% D2O; Trp75 and Trp167 indole NH resonances as reporters of the ligand-bound closed state; 12 min per spectrum, up to 24 h. Particulars: both partners purified.

Series [11] has as its target T6, Mad2^LL (human, UniProt Q13257 1-205, residues 109–117 (TAKDDSAPR) with GSG).
T6 construct: Mad2, human; wild-type construct with residues 109-117 of the β5-αC loop replaced by GSG; Tag is followed by a TEV site; also called loop-less Mad2 mutant; O-Mad2^LL; source: E. coli BL21 Star (DE3) with pRARE, purified
The description is as above. Conditions: both partners purified.

Bounds are passed on as bounds.

T2 sequence (Q13257 whole entry R133A): as the sequence (Q13257 whole entry, the tested form may be a part) above, with R133A counted along it
T1 sequence (Q13257 whole entry R133A): as the sequence (Q13257 whole entry, the tested form may be a part) above, with R133A counted along it
T3 sequence (Q13257 other isoform, or with tags, fused parts or gaps with the stated changes): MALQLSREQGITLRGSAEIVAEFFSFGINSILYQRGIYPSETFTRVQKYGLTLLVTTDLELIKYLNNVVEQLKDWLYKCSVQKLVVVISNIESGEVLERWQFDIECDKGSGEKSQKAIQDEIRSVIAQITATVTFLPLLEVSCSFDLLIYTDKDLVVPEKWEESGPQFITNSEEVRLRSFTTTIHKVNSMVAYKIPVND
T6 sequence (Q13257 other isoform, or with tags, fused parts or gaps with the stated changes): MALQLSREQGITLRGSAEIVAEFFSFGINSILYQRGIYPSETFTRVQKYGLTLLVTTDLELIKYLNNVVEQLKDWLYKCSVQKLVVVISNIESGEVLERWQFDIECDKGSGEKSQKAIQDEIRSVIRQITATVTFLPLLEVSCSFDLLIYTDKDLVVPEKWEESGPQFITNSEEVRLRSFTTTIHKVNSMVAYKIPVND

For the molecule “O‐Mad2^R133A: dimerization‐deficient mutant Mad2^R133A in its open state”, the “spontaneous conversion time to "empty" C-Mad2” value in [1] (100 μM, 25°C, absence of Cdc20^MIM-111-138 peptide, ref Fischer et al., [2022]) is ~ 24 h.
Consider O‐Mad2: Mad2 in the open inactive state, for which, in [2], the melting temperature is 69 °C. For the same molecule, the “t1/2 of intrinsic O-Mad2 to C-Mad2 conversion, in words” value in series [1] (in solution, ref Faesen et al., [2017], Lad et al., [2009], Luo et al., [2004], Simonetta et al.) is listed as “multiple hours”.
For “FDVEEAKILRLSGKP [Cdc20^MIM‐123‐137, Cdc20^MIM spanning residues 123–137]”, the “Mad2 conversion rate/efficiency, in words” value in series [3] (time-resolved NMR, compared with other Cdc20^MIM peptides) is listed as “triggered Mad2 conversion at a similar rate as Cdc20^MIM‐111‐138”.
As for “Mad1 residues 540–551: Mad1 residues 540–551, earlier NMR study (Luo et al., [2004]) (TKVLHMSLNPTS; UniProt Q9Y6D9 540-551, looked up, fragment)”, in series [4], the “effect on O-Mad2 to C-Mad2 conversion, in words” value is “facilitate this conversion”.
For SWYSYPPPQRAV [MBP1^MIM], the “C-Mad2 affinity, in words” value in series [5] is on record as “enhanced C‐Mad2 affinity”. The “interaction with Mad2^∆β7/β8, in words” value in series [6] is listed as “weak interaction”. Besides, the “time to complete Mad2 conversion” value in series [3] (two-fold molar excess peptide, 20 mM HEPES pH 7.0, 100 mM NaCl, 1 mM TCEP, 5% D2O, Trp75/Trp167 indole NH reporters, 12 min per spectrum) was at most 60 min.

B1: Cdc20^MIM-123-137 (peptide)
peptide: FDVEEAKILRLSGKP
notes: source: synthetic peptide (Cambridge Research Biochemicals)
Turning to B1, the binding result in [7] is given as “binds”.

B2: Cdc20^MIM-123-152 (peptide)
peptide: FDVEEAKILRLSGKPQNAPEGYQNRLKVLY
notes: also called MIM peptide; source: synthetic peptide (Cambridge Research Biochemicals)
With B2, the binding result in series [8] and in [7] was “binds” in each case.

B3: Mad1^MIM-529-550 (peptide)
peptide: RALQGDYDQSRTKVLHMSLNPT
notes: as for B1
On to B3, for which the binding result in series [9] and in series [7] was “binds” throughout.

B4: Cdc20^MIM-111-138 (peptide)
peptide: EHQKAWALNLNGFDVEEAKILRLSGKPQ
notes: as for B1
As for B4, the binding result in series [10] and in series [11] was “binds” throughout.

B5: MBP1^MIM (peptide)
peptide: SWYSYPPPQRAV
notes: as for B1
As for B5, in [7], the binding result is reported as “binds”.
